Measured values as given in the supplement of paper PMC9170038.

Tested on: K4 kissing-loop RNA reporter
Experiment: apparent KD of K4 kissing-loop reporter; higher = weaker reporter binding
Conditions: Eterna round: R107; input ligand: none
Description: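 RNA-MaP round R107: designed RNA switches with theophylline, tryptophan, arginine or FMN aptamers are transcribed on-chip within common flanks. They are titrated with a labelled K4 kissing-loop RNA reporter in RNA-MaP buffer (100 mM Tris pH 7.5, 80 mM KCl, 4 mM MgCl2), without ligand or with the indicated ligand. Median apparent KD per design.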
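Also: bound reporter read as fluorescence of individual clusters on recovered sequencing chips by microscopy, with normalized cluster intensities fitted with a binding model.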

Sequence | apparent KD of K4 kissing-loop reporter [µM]
GAUACCACGUUAGAUACCAGCUUCGUUGACUUGGGUAGUAGUCGAACUUCAGUGAUGUUGAGCCCUUGGCAGCUACAGAUGUGCG [theeternabot_exclusion_KL_Theo_B_38] | 0.654
AGCGGCGCGCUGGAUACCAGUGUCCGACGCGUUAGUAUAGAUCCAAAGUGAUGUUUUGGUCACCCUUGGCAGCCACCUCUGUCGG [theeternabot_exclusion_KL_Theo_B_29] | 0.245
CUUAAGGAGUGUCGUGCCGGACACUGGGAAGGAGCGCAAUUCUUUGCAGGUAGGUCGCCCAGUGAUGUUGGGUCUCGCUGUCGAA [KL-XArg-A20] | 0.204
GACAUAUUCCAGGAUACCAGUGAUCCGCCGCAGCCGAAGACUAGUGAUGUUAGUUUCUGUCACCCUUGGCAGCCUCGAGUCUAAU [theeternabot_sameState_KL_Theo_B_15] | 0.498
UGACUGGACUGAAGGAGCGUUCAGGUAGGUCGCUAAGGAGUGAUGUUCCAUAGAAGGAGCGAACAGGUAGGUCGCAGUCUAGUCU [ArgBS 29 #DoubleAptamer #SwitchBubble] | 0.163
CGCCGAAAGGCGAGCGCUCCCACUCCGGAAGGAGCGCCCGAAAGGGCAGGUAGGUCGCCGGAGUGAUGUUCCGGUGGAGGGCUCG [#2 Exclusion - Arginine A Attempt #30 (Inspired by Omei)] | 0.817
AAACAUUGGUCUGAUACCAGCUGAUCGGAAACGAUCUUGCUGGAGUGAUGUUCCAGGAAAAGCCCUUGGCAGCAGACCGAUGAAA [MAT - Same State Theophlline B - Mod of Eli - D24] | 1.03
GGCUUACUAGUGAUGUUAGUAUUUUCUGAAGGAGCGCGUGAAAACGCAGGUAGGUCGCAGAACCUUGCCAACUAUUUUAGUUGCC [Ex Arginine A K4 28] | 0.115
AAAAUAAUCCAGUGAUGUUGGUAUACAGAUACCAGCGACGAAAGUCGCCCUUGGCAGCUGUGGACGUACAAAAUAAGUACGUCCU | 1.21
GUAGACGUGCCUUCAGUGAUGUUGAAGGAUACCAGAUGUUACCACAUCCCUUGGCAGCCUUGGGAUAACAGUGAGUCGGUAUAUG [Ontierso] | 0.297
UCUGUGUCCGCGGCCGCCACUCGGGACUAAGUGAUGUUUAGUCCUUCAGAAUAAAGAAGUGAUGAGAGGACCGGGCGAUCGCACC [theeternabot_sameState_KL_Trp_B_2] | 0.0996
GGGAGUGAUGUUCCCGCGUUGACGGUCCUCCGAGGACCGGUACGGCCGCCACUCGAAACCCAGUGAUGUUGGGACUCACCGUACU [Exclusion Tryptophan A GF 11] | 0.511
CUAGGUAACACAGGAUAUGUCCGAGUGAUGUUCGAGCCUUUCCAUUGACGAAAUUAAUGGUGGGUGACAGAAGGGUGAGUACUGA [Uses] | 1.09
CCAUCGCUAUUCGAUACCAGUCAUAAAAUCUUUGGUUAAAUAAAGGAGUGAUGUUCCCAAGACCCUUGGCAGCGAAUAGUGAUGG [Theophylline B K4 7] | 0.217
AACUGUCAAGGACAACAUUACUGCAGUGAUACCAGCAUCGAAAGAUGCCCUUGGCAGCACCAACUUGCAGUGAUGUUGCAAGUAA [BrourdMod 5 - Jieux - Exclusion - Theophylline A] | 0.216
GGAUAGGACAGAGGAUAUCCUUGAGGCAAGAAACUUGUCUCUAAAGGAUGAAUCCUAGUGAUGUUAGGAGAAGGCUGUCCUAUCG [FmnBX 14 - #SwitchBubble #StaticStem #Palindromic] | 0.085
UUUCCAGUGAUGUUGGAGAAAACCGAGGAAGGAGCGGACUCUUGUCCAGGUAGGUCGCCUCGUCUCCCAUUGGCAGAGCGGACCC [Enlaonbian] | 0.249
UAUAGAAACGUCCUAUCAGUAAAAUGGGAAGGAGCGAGGAAGGACUCAGGUAGGUCGCCCAAUAACCUUAGUGAUGUUAAGGAAA [Version 2] | 0.131
AGGAUCCGUCGACAAAAGUCGACAAUAACCAAGGAUAUGACGAAAGUCAGAAGGUGGUCUUAUGACCAGUGAUGUUGGUGGAUCC [FmnA 15 #SwitchBubble #K4Late] | 0.5
GCCUACGUAGCAGGAUAUAGGUAAGUGAGUGAUGUUCAAGAGUUCUGGAGUGAUGUUCCAAUCUGACUAGAAGGGCUACGUAGGC | 0.0793
GAGAGCCCUGUAGGAUAUGAGUCUAGUGAUGUUAGGCGGUCCAUGCGCGUGGCGCGUUAUGCCCUUUUAGAAGGACAGGGCUCUC [#2 Exclusion - FMN B Attempt #20 (HarryS)] | 0.0809

Same assay, conditions: Eterna round: R107; input ligand: theophylline 20 uM

Sequence | apparent KD of K4 kissing-loop reporter [µM]
AGGCACGAGCAAGGAUAUCGAGUAGAGUGAUGUUCUGCCUGGGUUGGCCCGUAAGGGCCUUCCCAGCGAGAAGGUGCUCGUGCCU [#2 Same State - FMN A Attempt #10 (HarryS)] | 0.679
AAUAAGGUCGCCGAUACCAGCGCGGGCAGAGCAAAGCUCUGCCCGGUAGUGAUGUUACCGCGCCCUUGGCAGCGGUGGCACGACC [Omei KL Theo B SS C v6] | 0.159
UGUACCGAGUCAGGAUAUGGCGUCGAAAGACGAAUCCUAGUGAUGUUAGCGAUCUGCGAAAGCAGUCCAGAAGGGACUUGGUACU [FmnBS 26 C50] | 0.371
CCGGCCCGGCCGGAUACCAGUGCGCCGCAGGGAACGGCGGGCCCAGAGUGAUGUUCGGGACACCCUUGGCAGCCGCCUGGGUCGC [#2 Same State - Theophylline B Attempt #27 (HarryS)] | 0.225
AUUAAUAUCACGGCCGCCACUGAAUAUUGUUUUUAUAUUUAGAAUAAUUGCCAGUGAUGUUGGAUCAGGACCGGGUGAGUUUAUA [JR_SSTryptoB_Sub007] | 0.377
AAUGAUGAUUGACACAUUUACUAAAAGGAAGGAGCGGCGAUGUGGCCAGGUAGGUCGCCUUUUAGCAGUGAUGUUGCUAUAUGUU [JR_Nu_ExcArginiA_Sub026] | 0.152
AGUGAUGUUGUGUGAUGUUAGUGAAGUGAUCGAGGACCGGUACGGCCGCCACUCGAGUGAUGAGUGAGUGAUGUUUGUUUAGUGG [#17 K4 Tryptophan A Same State] | 0.186
AUGAGGAGCAGUGAUCCUACUCCAUGGGAAGGAGCGUAGGAUACUACAGGUAGGUCGCCCAGUGAUGUUGGGCGCGUGCUCUUGG [Isatquesra] | 0.148
GAUAGUUAGAGAGAUACCAGCGAUACCUAGAUGGAAAGUGAUGUUCGCCAUCAAUUGCACCGCCCUUGGCAGCUCUCUCUUUGCU [theeternabot_exclusion_KL_Theo_B_37] | 0.974
UGUACCGAGUCAGGAUAUGUCGUCGAAAGACGAAAUGGAGUGAUGUUCCUUAAACUGCGAAAGCAGACAGAAGGGACUUGGUACU [FmnBS 29 #SwitchBubble #StaticStem #DoubleMagnetSystem] | 0.331
ACCUCACAGUGAUGUUGUGAGCCGAUAGUGAAGGAUAUUGUAAAGUCAAGAAGGUCAUGUCAGUCACAAAACGUUAAGCCUCGCA [theeternabot_exclusion_KL_FMN_A_19] | 0.266
UGAUACCAGGCGGCCGCCACUCCUACAGGUCAAAGACCUGUAAAGCUGGUUCUCCAGUGAUGUUGGAGGACCGGGCCUGGUAUCU [FiskerMod 29 - Jieux - Exclusion - Tryptophan B] | 0.15
UUAUAUAUAUUAGAUACCAGUUUAAUGGAAACAAAUUAUGUUAUGAGUGAUGUUCAUGUAAGCCCUUGGCAGCUGGUAUGGGUUU [KL-XTheo-B18] | 0.322
AGUGAUGUUCCUCCUCUUGGUCUUGGUGGGCGAGGACCGGUACGGCCGCCACUCGAUGUGGGAGUGAUGUUUCCAUAUGAUGUUU [Tryptophan A] | 0.675
AUUCGUUUAUGUGAUACCAGACUUUGCAGUGAUGUUGCAUUUAUUUUUGAAUUUUAGUUUGUCCCUUGGCAGCACUAUUUAUUUA [JR_SSTheophyB_Sub005] | 0.0831
UAGCAUUUGCUCGAGUGAUGUUCGAGCGAAGGAGCGCGAGAAAUCGCAGGUAGGUCGCGCUCGAACUAUGAGCGAUCAUUUAUUG [Arg A Ex t2d] | 0.395

Sequence | apparent KD of K4 kissing-loop reporter [µM]
UGUGGAGAAUAUGAUACCAGCAGAGAGAGAGAGGAAGUAUAGUGAUGUUAUAUGAGAGAAUGCCCUUGGCAGCAUAAGAAGAAGG [SSTheophylB.C] | 0.216
GAAAGAAAGUAUGAUACCAGACACCCGAGUGAUGUUCGGAGCAGUGUGUUGUUCUUUUAAGUCCCUUGGCAGCAUAAAAGAAAAG [whbob_SS_Theo_B_sa85] | 0.114
GGUAGCAUGGCGGCCGCCACUAAAACUGGAUCGGAAACGAUCCAGUAAUUUCGAGUGAUGUUCGUUAGGACCGGGCCAUGCUACC | 0.257
UGGAUAUAGUGAUGUUAUAUAGAGAUGGAUACCAGCGAAGAGAAUUGCCCUUGGCAGCCGAAAGAAGUAUCAUUAGAGAAGAAUG [ExTheophyl.Ah] | 0.261
AUUUUUUUAUCAGGAUAUUAGUGUUGGUUUGUUUUGUUAGUGAUGUUGAUAUUUGUUUUAUGUAUUUAAGAAGGGAUUGUGAUGU [huupullin] | 0.381
GAUACCACGUUAGAUACCAGCUUCGUUGACUUGGGUAGUAGUCGAACUUCAGUGAUGUUGAGCCCUUGGCAGCUACAGAUGUGCG [theeternabot_exclusion_KL_Theo_B_38] | 0.588
AGCGGCGCGCUGGAUACCAGUGUCCGACGCGUUAGUAUAGAUCCAAAGUGAUGUUUUGGUCACCCUUGGCAGCCACCUCUGUCGG [theeternabot_exclusion_KL_Theo_B_29] | 0.257
CUUAAGGAGUGUCGUGCCGGACACUGGGAAGGAGCGCAAUUCUUUGCAGGUAGGUCGCCCAGUGAUGUUGGGUCUCGCUGUCGAA [KL-XArg-A20] | 0.376
GACAUAUUCCAGGAUACCAGUGAUCCGCCGCAGCCGAAGACUAGUGAUGUUAGUUUCUGUCACCCUUGGCAGCCUCGAGUCUAAU [theeternabot_sameState_KL_Theo_B_15] | 0.572
UGACUGGACUGAAGGAGCGUUCAGGUAGGUCGCUAAGGAGUGAUGUUCCAUAGAAGGAGCGAACAGGUAGGUCGCAGUCUAGUCU [ArgBS 29 #DoubleAptamer #SwitchBubble] | 0.19
CGCCGAAAGGCGAGCGCUCCCACUCCGGAAGGAGCGCCCGAAAGGGCAGGUAGGUCGCCGGAGUGAUGUUCCGGUGGAGGGCUCG [#2 Exclusion - Arginine A Attempt #30 (Inspired by Omei)] | 0.212
AAACAUUGGUCUGAUACCAGCUGAUCGGAAACGAUCUUGCUGGAGUGAUGUUCCAGGAAAAGCCCUUGGCAGCAGACCGAUGAAA [MAT - Same State Theophlline B - Mod of Eli - D24] | 0.715
GGCUUACUAGUGAUGUUAGUAUUUUCUGAAGGAGCGCGUGAAAACGCAGGUAGGUCGCAGAACCUUGCCAACUAUUUUAGUUGCC [Ex Arginine A K4 28] | 0.136
AAAAUAAUCCAGUGAUGUUGGUAUACAGAUACCAGCGACGAAAGUCGCCCUUGGCAGCUGUGGACGUACAAAAUAAGUACGUCCU | 0.592
GUAGACGUGCCUUCAGUGAUGUUGAAGGAUACCAGAUGUUACCACAUCCCUUGGCAGCCUUGGGAUAACAGUGAGUCGGUAUAUG [Ontierso] | 0.253
